{
  "source": "paper PMC3167627",
  "target": "Mcm2EE-7 S164E;S170E (Saccharomyces cerevisiae) (UniProt P29469+P24279+P30665+P29496+P53091+P38132)",
  "assay": "gel filtration",
  "data": [
    {"substance": "M13mp19 circular ssDNA", "values": [
      {"measurement": "binding signal (fold bound vs Mcm2WT-7 at 0.5 nM ssDNA)", "result": "> 3"}
    ]}
  ]
}
